Experiments:
Amyloid beta (1-42) = assay: cell-based or functional assay
Amyloid beta (1-40) = assay: SPR (BIAcore); SLF-CR pre-incubated with FKBP passed over immobilized Aβ(1-40); SLF-CR alone gave ~140 RUs; ternary FKBP/drug/Aβ complex
Chain of Amyloid beta (1-40) (peptide, as listed by the source): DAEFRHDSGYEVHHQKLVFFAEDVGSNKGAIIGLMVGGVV

Chain of Amyloid beta (1-42) (peptide, as listed by the source): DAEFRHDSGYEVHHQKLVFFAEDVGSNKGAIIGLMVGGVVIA

| IC50 in thioflavin T aggregation assay (drug concentration, FKBP 1 uM) (Amyloid beta (1-42)) [nM] | SPR response (Amyloid beta (1-40)) [RU] | Substance |
| --- | --- | --- |
| 50 | – | FKBP12 with the bifunctional compound SLF-Benz-CR (from UniProt P62942 2-108) (enzyme) |
| – | 230 | FKBP12 pre-incubated with the bifunctional compound SLF-CR (SLF-Congo red) (from UniProt P62942 2-108) (enzyme) |

— patent US7923230
